B1: Major outer membrane lipoprotein Lpp, P69776 (parent)
chain: MKATKLVLGAVILGSTLLAGCSSNAKIDQLSSDVQTLNAKVDQLSNDVNAMRSDVQAAKDDAARANQRLDNMATKYRK

Variants of: B1
Details: Escherichia coli (strain K12), pH 7, CD, structure 1EQ7, whole UniProt chain shown; for ddG of mutation (higher = less stable) / unfolding free energy: 4 °C, GdnHCl, PBS; for Tm / change of melting temperature, mutant - wild type (higher = more stable): Thermal, Sodium phosphate 50mM, NaCl 150mM

Variant | ddG of mutation (higher = less stable) [kcal/mol] | unfolding free energy [kcal/mol] | Tm [°C] | change of melting temperature, mutant - wild type (higher = more stable) [°C]
MKATKLVLGAVILGSTLLAGCSSNAKIDQLSSDVQTLNAKVDQLSNDVNAMRSDVQAAKDDAARANQRLDNMATKARK | 1.1 | 19.4 | 63 | -4
MKATKLVLGAVILGSTLLAGCSANAKIDQLSSDVQTLNAKVDQLSNDVNAMRSDVQAAKDDAARANQRLDNMATKYRK | 0.8 | 19.7 | 64 | -3

Reference: FireProtDB (doi:10.1006/jmbi.2000.3776)
